The values that follow come from the supplement of paper PMC5998384.

For data set [1], the system named is HeLa Kyoto. Description: solubility change mitosis vs G1/S (difference of NP-40 vs SDS log2 ratios) (log2 ratio difference); higher = more soluble in mitosis.
The subject of data set [2] is HeLa Kyoto. In words: solubility in G1/S (NP-40 vs SDS abundance) (log2 ratio); higher = more soluble. As to conditions: cell cycle stage: G1/S.
For data set [3], the system named is HeLa Kyoto. Description: thermal stability score vs G1/S (z-score of summed log2 fold changes over temperatures); higher = more thermally stable than in G1/S.
Data set [4] has as its system HeLa Kyoto. Description: melting temperature (median over replicates), in situ; higher = more thermally stable.
[5] abbreviates: cell cycle stage: early G1 (4.5 h after nocodazole release).
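For melting temperature (median over replicates), in situ in this document: HeLa Kyoto cells synchronized by double thymidine or nocodazole block, proteins quantified by TMT10plex mass spectrometry, three independent biological replicates.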
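For solubility change mitosis vs G1/S (difference of NP-40 vs SDS log2 ratios) in this document: synchronized HeLa Kyoto cells (double thymidine block for G1/S, nocodazole release for mitosis), protein amounts in NP-40 versus SDS lysates quantified by mass spectrometry, three biological replicates.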
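For solubility in G1/S (NP-40 vs SDS abundance) in this document: HeLa Kyoto cells arrested at G1/S by double thymidine block, proteins quantified by TMT10plex mass spectrometry in mild NP-40 versus SDS extracts, three biological replicates.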
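For thermal stability score vs G1/S (z-score of summed log2 fold changes over temperatures) in this document: synchronized HeLa Kyoto cells, proteins quantified by TMT10plex mass spectrometry, three biological replicates, mitosis taken 0.5 h after nocodazole release, G1/S directly after double thymidine block.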

For “MAAGGDHGSPDSYRSPLASRYASPEMCFVFSDRYKFRTWRQLWLWLAEAEQTLGLPITDEQIQEMKSNLENIDFKMAAEEEKRLRHDVMAHVHTFGHCCPKAAGIIHLGATSCYVGDNTDLIILRNALDLLLPKLARVISRLADFAKERASLPTLGFTHFQPAQLTTVGKRCCLWIQDLCMDLQNLKRVRDDLRFRGVKGTTGTQASFLQLFEGDDHKVEQLDKMVTEKAGFKRAFIITGQTYTRKVDIEVLSVLASLGASVHKICTDIRLLANLKEMEEPFEKQQIGSSAMPYKRNPMRSERCCSLARHLMTLVMDPLQTASVQWFERTLDDSANRRICLAEAFLTADTILNTLQNISEGLVVYPKVIERRIRQELPFMATENIIMAMVKAGGSRQDCHEKIRVLSQQAASVVKQEGGDNDLIERIQVDAYFSPIHSQLDHLLDPSSFTGRASQQVQRFLEEEVYPLLKPYESVMKVKAELCL [ADSL]”, the “solubility change mitosis (log2)” value in data set [1] was -0.138. Also, the “solubility in G1/S (log2)” value in data set [2] was 0.108. For the same sequence, the figures for the thermal stability score in data set [3] (setting [5]) and in data set [3] (cell cycle stage: mitosis) were -1.75 and -1.49, respectively. In addition, the melting temperature is 57.2 °C in data set [4] (cell cycle stage: G1/S) and 57.8 °C in data set [4] (cell cycle stage: mitosis).

As to “MAAGPISERNQDATVYVGGLDEKVSEPLLWELFLQAGPVVNTHMPKDRVTGQHQGYGFVEFLSEEDADYAIKIMNMIKLYGKPIRVNKASAHNKNLDVGANIFIGNLDPEIDEKLLYDTFSAFGVILQTPKIMRDPDTGNSKGYAFINFASFDASDAAIEAMNGQYLCNRPITVSYAFKKDSKGERHGSAAERLLAAQNPLSQADRPHQLFADAPPPPSAPNPVVSSLGSGLPPPGMPPPGSFPPPVPPPGALPPGIPPAMPPPPMPPGAAGHGPPSAGTPGAGHPGHGHSHPHPFPPGGMPHPGMSQMQLAHHGPHGLGHPHAGPPGSGGQPPPRPPPGMPHPGPPPMGMPPRGPPFGSPMGHPGPMPPHGMRGPPPLMPPHGYTGPPRPPPYGYQRGPLPPPRPTPRPPVPPRGPLRGPLPQ [SF3B4]”, in data set [1], the “solubility change mitosis (log2)” value came to 0.162. The “solubility in G1/S (log2)” value in data set [2] is 0.275. Also, the thermal stability score in data set [3] (setting [5]) was -2.15; in data set [3] (cell cycle stage: mitosis) it was -2.49. Also, the figures for the melting temperature in data set [4] (cell cycle stage: G1/S) and in data set [4] (cell cycle stage: mitosis) were 50.9 °C and 51.3 °C, respectively.

For “MAAGVEAAAEVAATEIKMEEESGAPGVPSGNGAPGPKGEGERPAQNEKRKEKNIKRGGNRFEPYANPTKRYRAFITNIPFDVKWQSLKDLVKEKVGEVTYVELLMDAEGKSRGCAVVEFKMEESMKKAAEVLNKHSLSGRPLKVKEDPDGEHARRAMQKVMATTGGMGMGPGGPGMITIPPSILNNPNIPNEIIHALQAGRLGSTVFVANLDYKVGWKKLKEVFSMAGVVVRADILEDKDGKSRGIGTVTFEQSIEAVQAISMFNGQLLFDRPMHVKMDERALPKGDFFPPERPQQLPHGLGGIGMGLGPGGQPIDANHLNKGIGMGNIGPAGMGMEGIGFGINKMGGMEGPFGGGMENMGRFGSGMNMGRINEILSNALKRGEIIAKQGGGGGGGSVPGIERMGPGIDRLGGAGMERMGAGLGHGMDRVGSEIERMGLVMDRMGSVERMGSGIERMGPLGLDHMASSIERMGQTMERIGSGVERMGAGMGFGLERMAAPIDRVGQTIERMGSGVERMGPAIERMGLSMERMVPAGMGAGLERMGPVMDRMATGLERMGANNLERMGLERMGANSLERMGLERMGANSLERMGPAMGPALGAGIERMGLAMGGGGGASFDRAIEMERGNFGGSFAGSFGGAGGHAPGVARKACQIFVRNLPFDFTWKMLKDKFNECGHVLYADIKMENGKSKGCGVVKFESPEVAERACRMMNGMKLSGREIDVRIDRNA [HNRNPM]”, the “solubility change mitosis (log2)” value in data set [1] is 0.236. For the same sequence, in data set [2], the “solubility in G1/S (log2)” value was -0.172. Further, the thermal stability score in data set [3] (setting [5]) stood at 6.88; in data set [3] (cell cycle stage: mitosis), 13.2. The melting temperature amounted to 46.7 °C in data set [4] (cell cycle stage: G1/S) and 47.3 °C in data set [4] (cell cycle stage: mitosis).

With “MAAHLVKRCTCLLREAARQAPAMAPVGRLRLAWVAHKTLTSSATSPISHLPGSLMEPVEKERASTPYIEKQVDHLIKKATRPEELLELLGGSHDLDSNQAAMVLIRLSHLLSEKPEDKGLLIQDAHFHQLLCLLNSQIASVWHGTLSKLLGSLYALGIPKASKELQSVEQEVRWRMRKLKYKHLAFLAESCATLSQEQHSQELLAELLTHLERRWTEIEDSHTLVTVMMKVGHLSEPLMNRLEDKCLELVEHFGPNELRKVLVMLAAQSRRSVPLLRAISYHLVQKPFSLTKDVLLDVAYAYGKLSFHQTQVSQRLATDLLSLMPSLTSGEVAHCAKSFALLKWLSLPLFEAFAQHVLNRAQDITLPHLCSVLLAFARLNFHPDQEDQFFSLVHEKLGSELPGLEPALQVDLVWALCVLQQAREAELQAVLHPEFHIQFLGGKSQKDQNTFQKLLHINATALLEYPEYSGPLLPASAVAPGPSALDRKVTPLQKELQETLKGLLGSADKGSLEVATQYGWVLDAEVLLDSDGEFLPVRDFVAPHLAQPTGSQSPPPGSKRLAFLRWEFPNFNSRSKDLLGRFVLARRHIVAAGFLIVDVPFYEWLELKSEWQKGAYLKDKMRKAVAEELAK [TBRG4]”, the “solubility change mitosis (log2)” value in data set [1] was -0.127. Besides, the “solubility in G1/S (log2)” value in data set [2] was 0.123. The thermal stability score in data set [3] (setting [5]) was 0.141; in data set [3] (cell cycle stage: mitosis) it was 3.9. Further, the melting temperature came to 48.4 °C in data set [4] (cell cycle stage: G1/S) and 48.2 °C in data set [4] (cell cycle stage: mitosis).

For the sequence “MAAIGVHLGCTSACVAVYKDGRAGVVANDAGDRVTPAVVAYSENEEIVGLAAKQSRIRNISNTVMKVKQILGRSSSDPQAQKYIAESKCLVIEKNGKLRYEIDTGEETKFVNPEDVARLIFSKMKETAHSVLGSDANDVVITVPFDFGEKQKNALGEAARAAGFNVLRLIHEPSAALLAYGIGQDSPTGKSNILVFKLGGTSLSLSVMEVNSGIYRVLSTNTDDNIGGAHFTETLAQYLASEFQRSFKHDVRGNARAMMKLTNSAEVAKHSLSTLGSANCFLDSLYEGQDFDCNVSRARFELLCSPLFNKCIEAIRGLLDQNGFTADDINKVVLCGGSSRIPKLQQLIKDLFPAVELLNSIPPDEVIPIGAAIEAGILIGKENLLVEDSLMIECSARDILVKGVDESGASRFTVLFPSGTPLPARRQHTLQAPGSISSVCLELYESDGKNSAKEETKFAQVVLQDLDKKENGLRDILAVLTMKRDGSLHVTCTDQETGKCEAISIEIAS [HSPA14]”, the “solubility change mitosis (log2)” value in data set [1] was -0.0832. The “solubility in G1/S (log2)” value in data set [2] is 0.167. Also, the figures for the thermal stability score in data set [3] (setting [5]) and in data set [3] (cell cycle stage: mitosis) were 1.14 and 3.27, respectively. For the same sequence, the melting temperature in data set [4] (cell cycle stage: G1/S) and in data set [4] (cell cycle stage: mitosis) was 48.4 °C in each case.

Turning to “MAALAPVGSPASRGPRLAAGLRLLPMLGLLQLLAEPGLGRVHHLALKDDVRHKVHLNTFGFFKDGYMVVNVSSLSLNEPEDKDVTIGFSLDRTKNDGFSSYLDEDVNYCILKKQSVSVTLLILDISRSEVRVKSPPEAGTQLPKIIFSRDEKVLGQSQEPNVNPASAGNQTQKTQDGGKSKRSTVDSKAMGEKSFSVHNNGGAVSFQFFFNISTDDQEGLYSLYFHKCLGKELPSDKFTFSLDIEITEKNPDSYLSAGEIPLPKLYISMAFFFFLSGTIWIHILRKRRNDVFKIHWLMAALPFTKSLSLVFHAIDYHYISSQGFPIEGWAVVYYITHLLKGALLFITIALIGTGWAFIKHILSDKDKKIFMIVIPLQVLANVAYIIIESTEEGTTEYGLWKDSLFLVDLLCCGAILFPVVWSIRHLQEASATDGKGDSMGPLQQRANLRAGSRIESHHFAQADLELLASSCPPASVSQRAGITAAINLAKLKLFRHYYVLIVCYIYFTRIIAFLLKLAVPFQWKWLYQLLDETATLVFFVLTGYKFRPASDNPYLQLSQEEEDLEMESVVTTSGVMESMKKVKKVTNGSVEPQGEWEGAV [GPR107]”, the “solubility change mitosis (log2)” value in data set [1] is -0.385. The “solubility in G1/S (log2)” value in data set [2] is -0.0201. The values for the thermal stability score in data set [3] (setting [5]) and in data set [3] (cell cycle stage: mitosis) were 0.348 and -0.468, respectively. For the same sequence, in data set [4] (cell cycle stage: mitosis), the melting temperature turned out to be 53.4 °C.
